In US20230183289A1 (ANPEP, published 2023):

target: elastase (type I: derived from porcine pancreas, Sigma Aldrich) (porcine, UniProt P00772 27-266); test: cell-based or functional assay
Sequence (P00772 27-266 limits assumed): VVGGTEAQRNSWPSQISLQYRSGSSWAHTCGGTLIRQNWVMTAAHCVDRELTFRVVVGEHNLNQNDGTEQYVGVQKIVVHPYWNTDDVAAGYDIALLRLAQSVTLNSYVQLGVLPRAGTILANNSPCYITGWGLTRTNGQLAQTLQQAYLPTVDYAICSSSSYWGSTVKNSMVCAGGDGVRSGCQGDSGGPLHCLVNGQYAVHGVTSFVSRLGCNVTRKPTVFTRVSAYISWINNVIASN

Row | Binder | Elastase Inhibition Rate (%)
1 | SGGS [Sample 8 tetrapeptide SGGS] | 49.6%
2 | TQTS [Sample 13 tetrapeptide TQTS] | 59%
3 | FSSG [Sample 22 tetrapeptide FSSG] | 69.1%
4 | PTPQ [Sample 3 tetrapeptide PTPQ] | 69.3%
5 | GQDP [Sample 34 tetrapeptide GQDP] | 34.5%
6 | GQLE [Sample 23 tetrapeptide GQLE] | 73.2%
7 | MSYQ [Sample 1 tetrapeptide MSYQ] | 79.4%
8 | LEVP [Sample 31 tetrapeptide LEVP] | 70.6%
9 | QLKY [Sample 35 tetrapeptide QLKY] | 60.5%
10 | CAPQ [Sample 14 tetrapeptide CAPQ] | 77.2%
11 | QQKQ [Sample 41 tetrapeptide QQKQ] | 72.3%
12 | YLEQ [Sample 36 tetrapeptide YLEQ] | 72.3%
13 | VLLP [Sample 39 tetrapeptide VLLP] | 60.7%
14 | VEHQ [Sample 40 tetrapeptide VEHQ] | 55.7%
15 | QKKQ [Sample 2 tetrapeptide QKKQ] | 88.7%
16 | YGGG [Sample 16 tetrapeptide YGGG] | 67.1%
17 | SQQV [Sample 12 tetrapeptide SQQV] | 49.3%
18 | SSGG [Sample 17 tetrapeptide SSGG] | 77%
19 | GSGY [Sample 9 tetrapeptide GSGY] | 56.3%
20 | PEEQ [Sample 32 tetrapeptide PEEQ] | 64%

Row | Binder | Elastase Inhibition Rate (%)
21 | PPVD [Sample 4 tetrapeptide PPVD] | 72.5%
22 | GSSG [Sample 19 tetrapeptide GSSG] | 58.3%
23 | KTSG [Sample 7 tetrapeptide KTSG] | 44.5%
24 | GYVS [Sample 11 tetrapeptide GYVS] | 78.5%
25 | LELP [Sample 26 tetrapeptide LELP] | 78.2%
26 | QPSY [Sample 15 tetrapeptide QPSY] | 63.5%
27 | KHLE [Sample 28 tetrapeptide KHLE] | 79.3%
28 | DCVK [Sample 5 tetrapeptide DCVK] | 118%
29 | EGQL [Sample 30 tetrapeptide EGQL] | 69.7%
30 | GGSG [Sample 18 tetrapeptide GGSG] | 104%
31 | EVQW [Sample 42 tetrapeptide EVQW] | 49.5%
32 | QMGQ [Sample 33 tetrapeptide QMGQ] | 55.6%
33 | EHQE [Sample 29 tetrapeptide EHQE] | 66.3%
34 | GCFS [Sample 20 tetrapeptide GCFS] | 55.2%
35 | TKGE [Sample 38 tetrapeptide TKGE] | 59.3%
36 | ELPE [Sample 24 tetrapeptide ELPE] | 90.5%
37 | CFSS [Sample 21 tetrapeptide CFSS] | 47.4%
38 | GQLK [Sample 27 tetrapeptide GQLK] | 56%
39 | GQVS [Sample 10 tetrapeptide GQVS] | 33.9%
40 | VKTS [Sample 6 tetrapeptide VKTS] | 66.3%
